{"source": "patent US7067646", "about": "(Dana-Farber, dated 2006)", "binders": {"B1": {"name": "RB (retinoblastoma protein), endogenous, HeLa extract (other, human, UniProt P06400 2-928, looked up)", "chain": "PPKTPRKTAATAAAAAAEPPAPPPPPPPEEDPEQDSGPEDLPLVRLEFEETEEPDFTALCQKLKIPDHVRERAWLTWEKVSSVDGVLGGYIQKKKELWGICIFIAAVDLDEMSFTFTELQKNIEISVHKFFNLLKEIDTSTKVDNAMSRLLKKYDVLFALFSKLERTCELIYLTQPSSSISTEINSALVLKVSWITFLLAKGEVLQMEDDLVISFQLMLCVLDYFIKLSPPMLLKEPYKTAVIPINGSPRTPRRGQNRSARIAKQLENDTRIIEVLCKEHECNIDEVKNVYFKNFIPFMNSLGLVTSNGLPEVENLSKRYEEIYLKNKDLDARLFLDHDKTLQTDSIDSFETQRTPRKSNLDEEVNVIPPHTPVRTVMNTIQQLMMILNSASDQPSENLISYFNNCTVNPKESILKRVKDIGYIFKEKFAKAVGQGCVEIGSQRYKLGVRLYYRVMESMLKSEEERLSIQNFSKLLNDNIFHMSLLACALEVVMATYSRSTSQNLDSGTDLSFPWILNVLNLKAFDFYKVIESFIKAEGNLTREMIKHLERCEHRIMESLAWLSDSPLFDLIKQSKDREGPTDHLESACPLNLPLQNNHTAADMYLSPVRSPKKKGSTTRVNSTANAETQATSAFQTQKPLKSTSLSLFYKKVYRLAYLRLNTLCERLLSEHPELEHIIWTLFQHTLQNEYELMRDRHLDQIMMCSMYGICKVKNIDLKFKIIVTAYKDLPHAVQETFKRVLIKEEEYDSIIVFYNSVFMQRLKTNILQYASTRPPTLSPIPHIPRSPYKFPSSPLRIPGGNIYISPLKSPYKISEGLPTPTKMTPRSRILVSIGESFGTSEKFQKINQMVCNSDRVLKRSAEGSNPPKPLKKLRFDIEGSDEADGSKHLPGESKFQQKLAEMTSTRTRMQKQKMNDSMDTSNKEEK", "notes": "Endogenous RB, both phosphorylation forms together"}, "B2": {"name": "p107, endogenous, HeLa extract (other, UniProt P28749 1-1068, looked up)", "chain": "MFEDKPHAEGAAVVAAAGEALQALCQELNLDEGSAAEALDDFTAIRGNYSLEGEVTHWLACSLYVACRKSIIPTVGKGIMEGNCVSLTRILRSAKLSLIQFFSKMKKWMDMSNLPQEFRERIERLERNFEVSTVIFKKYEPIFLDIFQNPYEEPPKLPRSRKQRRIPCSVKDLFNFCWTLFVYTKGNFRMIGDDLVNSYHLLLCCLDLIFANAIMCPNRQDLLNPSFKGLPSDFHTADFTASEEPPCIIAVLCELHDGLLVEAKGIKEHYFKPYISKLFDRKILKGECLLDLSSFTDNSKAVNKEYEEYVLTVGDFDERIFLGADAEEEIGTPRKFTRDTPLGKLTAQANVEYNLQQHFEKKRSFAPSTPLTGRRYLREKEAVITPVASATQSVSRLQSIVAGLKNAPSDQLINIFESCVRNPVENIMKILKGIGETFCQHYTQSTDEQPGSHIDFAVNRLKLAEILYYKILETVMVQETRRLHGMDMSVLLEQDIFHRSLMACCLEIVLFAYSSPRTFPWIIEVLNLQPFYFYKVIEVVIRSEEGLSRDMVKHLNSIEEQILESLAWSHDSALWEALQVSANKVPTCEEVIFPNNFETGNGGNVQGHLPLMPMSPLMHPRVKEVRTDSGSLRRDMQPLSPISVHERYSSPTAGSAKRRLFGEDPPKEMLMDKIITEGTKLKIAPSSSITAENVSILPGQTLLTMATAPVTGTTGHKVTIPLHGVANDAGEITLIPLSMNTNQESKVKSPVSLTAHSLIGASPKQTNLTKAQEVHSTGINRPKRTGSLALFYRKVYHLASVRLRDLCLKLDVSNELRRKIWTCFEFTLVHCPDLMKDRHLDQLLLCAFYIMAKVTKEERTFQEIMKSYRNQPQANSHVYRSVLLKSIPREVVAYNKNINDDFEMIDCDLEDATKTPDCSSGPVKEERGDLIKFYNTIYVGRVKSFALKYDLANQDHMMDAPPLSPFPHIKQQPGSPRRISQQHSIYISPHKNGSGLTPRSALLYKFNGSPSKSLKDINNMIRQGEQRTKKRVIAIDSDAESPAKRVCQENDDVLLKRLQDVVSERANH"}, "B3": {"name": "p130, endogenous, HeLa extract (other, UniProt Q08999 1-1139, looked up)", "chain": "MPSGGDQSPPPPPPPPAAAASDEEEEDDGEAEDAAPPAESPTPQIQQRFDELCSRLNMDEAARAEAWDSYRSMSESYTLEGNDLHWLACALYVACRKSVPTVSKGTVEGNYVSLTRILKCSEQSLIEFFNKMKKWEDMANLPPHFRERTERLERNFTVSAVIFKKYEPIFQDIFKYPQEEQPRQQRGRKQRRQPCTVSEIFHFCWVLFIYAKGNFPMISDDLVNSYHLLLCALDLVYGNALQCSNRKELVNPNFKGLSEDFHAKDSKPSSDPPCIIEKLCSLHDGLVLEAKGIKEHFWKPYIRKLYEKKLLKGKEENLTGFLEPGNFGESFKAINKAYEEYVLSVGNLDERIFLGEDAEEEIGTLSRCLNAGSGTETAERVQMKNILQQHFDKSKALRISTPLTGVRYIKENSPCVTPVSTATHSLSRLHTMLTGLRNAPSEKLEQILRTCSRDPTQAIANRLKEMFEIYSQHFQPDEDFSNCAKEIASKHFRFAEMLYYKVLESVIEQEQKRLGDMDLSGILEQDAFHRSLLACCLEVVTFSYKPPGNFPFITEIFDVPLYHFYKVIEVFIRAEDGLCREVVKHLNQIEEQILDHLAWKPESPLWEKIRDNENRVPTCEEVMPPQNLERADEICIAGSPLTPRRVTEVRADTGGLGRSITSPTTLYDRYSSPPASTTRRRLFVENDSPSDGGTPGRMPPQPLVNAVPVQNVSGETVSVTPVPGQTLVTMATATVTANNGQTVTIPVQGIANENGGITFFPVQVNVGGQAQAVTGSIQPLSAQALAGSLSSQQVTGTTLQVPGQVAIQQISPGGQQQKQGQSVTSSSNRPRKTSSLSLFFRKVYHLAAVRLRDLCAKLDISDELRKKIWTCFEFSIIQCPELMMDRHLDQLLMCAIYVMAKVTKEDKSFQNIMRCYRTQPQARSQVYRSVLIKGKRKRRNSGSSDSRSHQNSPTELNKDRTSRDSSPVMRSSSTLPVPQPSSAPPTPTRLTGANSDMEEEERGDLIQFYNNIYIKQIKTFAMKYSQANMDAPPLSPYPFVRTGSPRRIQLSQNHPVYISPHKNETMLSPREKIFYYFSNSPSKRLREINSMIRTGETPTKKRGILLEDGSESPAKRICPENHSALLRRLQDVANDRGSH"}, "B4": {"name": "RB with the FLAG tag at the C-terminus (other, UniProt P06400 2-928, looked up, not shown: small tags and cut ends)", "chain": "B1 chain", "notes": "also called C-terminally tagged RB"}, "B5": {"name": "His-tagged MTAF600 (4529-4851) (other)", "chain": "EMNTLNVMLGTLNLALVAEQESKDSGGAAVAEQVLSIMEIILDESNAEPLSEDKGNLLLTGDKDQLVMLLDQINSTFVRSNPSVLQGLLRIIPYLSFGEVEKMQILVERFKPYCNFDKYDEDHSGDDKVFLDCFCKIAAGIKNNSNGHQLKDLILQKGITQNALDYMKKHIPSAKNLDADIWKKFLSRPALPFILRLLRGLAIQHPGTQVLIGTDSIPNLHKLEQVSSDEGIGTLAENLLEALREHPDVNKKIDAARRETRAEKKRMAMAMRQKALGTLGMTTNEKGQVVTKTALLKQMEELIEEPGLTCCICREGYKFQPTK", "notes": "Expressed in E. coli; not shown: His tag of vector pET28c"}}, "key": {"[1]": {"biological_target": "T1, MTAF600 (microtubule associated factor 600) (human, UniProt Q5T4S7 1-5183)", "T1 construct": "Native endogenous protein of HeLa nuclear extracts (5183 residues); also called MT-associated factor (MTAF) 600; 600 kDa subunit", "T1 sequence (Q5T4S7 other isoform, or with tags, fused parts or gaps limits assumed)": "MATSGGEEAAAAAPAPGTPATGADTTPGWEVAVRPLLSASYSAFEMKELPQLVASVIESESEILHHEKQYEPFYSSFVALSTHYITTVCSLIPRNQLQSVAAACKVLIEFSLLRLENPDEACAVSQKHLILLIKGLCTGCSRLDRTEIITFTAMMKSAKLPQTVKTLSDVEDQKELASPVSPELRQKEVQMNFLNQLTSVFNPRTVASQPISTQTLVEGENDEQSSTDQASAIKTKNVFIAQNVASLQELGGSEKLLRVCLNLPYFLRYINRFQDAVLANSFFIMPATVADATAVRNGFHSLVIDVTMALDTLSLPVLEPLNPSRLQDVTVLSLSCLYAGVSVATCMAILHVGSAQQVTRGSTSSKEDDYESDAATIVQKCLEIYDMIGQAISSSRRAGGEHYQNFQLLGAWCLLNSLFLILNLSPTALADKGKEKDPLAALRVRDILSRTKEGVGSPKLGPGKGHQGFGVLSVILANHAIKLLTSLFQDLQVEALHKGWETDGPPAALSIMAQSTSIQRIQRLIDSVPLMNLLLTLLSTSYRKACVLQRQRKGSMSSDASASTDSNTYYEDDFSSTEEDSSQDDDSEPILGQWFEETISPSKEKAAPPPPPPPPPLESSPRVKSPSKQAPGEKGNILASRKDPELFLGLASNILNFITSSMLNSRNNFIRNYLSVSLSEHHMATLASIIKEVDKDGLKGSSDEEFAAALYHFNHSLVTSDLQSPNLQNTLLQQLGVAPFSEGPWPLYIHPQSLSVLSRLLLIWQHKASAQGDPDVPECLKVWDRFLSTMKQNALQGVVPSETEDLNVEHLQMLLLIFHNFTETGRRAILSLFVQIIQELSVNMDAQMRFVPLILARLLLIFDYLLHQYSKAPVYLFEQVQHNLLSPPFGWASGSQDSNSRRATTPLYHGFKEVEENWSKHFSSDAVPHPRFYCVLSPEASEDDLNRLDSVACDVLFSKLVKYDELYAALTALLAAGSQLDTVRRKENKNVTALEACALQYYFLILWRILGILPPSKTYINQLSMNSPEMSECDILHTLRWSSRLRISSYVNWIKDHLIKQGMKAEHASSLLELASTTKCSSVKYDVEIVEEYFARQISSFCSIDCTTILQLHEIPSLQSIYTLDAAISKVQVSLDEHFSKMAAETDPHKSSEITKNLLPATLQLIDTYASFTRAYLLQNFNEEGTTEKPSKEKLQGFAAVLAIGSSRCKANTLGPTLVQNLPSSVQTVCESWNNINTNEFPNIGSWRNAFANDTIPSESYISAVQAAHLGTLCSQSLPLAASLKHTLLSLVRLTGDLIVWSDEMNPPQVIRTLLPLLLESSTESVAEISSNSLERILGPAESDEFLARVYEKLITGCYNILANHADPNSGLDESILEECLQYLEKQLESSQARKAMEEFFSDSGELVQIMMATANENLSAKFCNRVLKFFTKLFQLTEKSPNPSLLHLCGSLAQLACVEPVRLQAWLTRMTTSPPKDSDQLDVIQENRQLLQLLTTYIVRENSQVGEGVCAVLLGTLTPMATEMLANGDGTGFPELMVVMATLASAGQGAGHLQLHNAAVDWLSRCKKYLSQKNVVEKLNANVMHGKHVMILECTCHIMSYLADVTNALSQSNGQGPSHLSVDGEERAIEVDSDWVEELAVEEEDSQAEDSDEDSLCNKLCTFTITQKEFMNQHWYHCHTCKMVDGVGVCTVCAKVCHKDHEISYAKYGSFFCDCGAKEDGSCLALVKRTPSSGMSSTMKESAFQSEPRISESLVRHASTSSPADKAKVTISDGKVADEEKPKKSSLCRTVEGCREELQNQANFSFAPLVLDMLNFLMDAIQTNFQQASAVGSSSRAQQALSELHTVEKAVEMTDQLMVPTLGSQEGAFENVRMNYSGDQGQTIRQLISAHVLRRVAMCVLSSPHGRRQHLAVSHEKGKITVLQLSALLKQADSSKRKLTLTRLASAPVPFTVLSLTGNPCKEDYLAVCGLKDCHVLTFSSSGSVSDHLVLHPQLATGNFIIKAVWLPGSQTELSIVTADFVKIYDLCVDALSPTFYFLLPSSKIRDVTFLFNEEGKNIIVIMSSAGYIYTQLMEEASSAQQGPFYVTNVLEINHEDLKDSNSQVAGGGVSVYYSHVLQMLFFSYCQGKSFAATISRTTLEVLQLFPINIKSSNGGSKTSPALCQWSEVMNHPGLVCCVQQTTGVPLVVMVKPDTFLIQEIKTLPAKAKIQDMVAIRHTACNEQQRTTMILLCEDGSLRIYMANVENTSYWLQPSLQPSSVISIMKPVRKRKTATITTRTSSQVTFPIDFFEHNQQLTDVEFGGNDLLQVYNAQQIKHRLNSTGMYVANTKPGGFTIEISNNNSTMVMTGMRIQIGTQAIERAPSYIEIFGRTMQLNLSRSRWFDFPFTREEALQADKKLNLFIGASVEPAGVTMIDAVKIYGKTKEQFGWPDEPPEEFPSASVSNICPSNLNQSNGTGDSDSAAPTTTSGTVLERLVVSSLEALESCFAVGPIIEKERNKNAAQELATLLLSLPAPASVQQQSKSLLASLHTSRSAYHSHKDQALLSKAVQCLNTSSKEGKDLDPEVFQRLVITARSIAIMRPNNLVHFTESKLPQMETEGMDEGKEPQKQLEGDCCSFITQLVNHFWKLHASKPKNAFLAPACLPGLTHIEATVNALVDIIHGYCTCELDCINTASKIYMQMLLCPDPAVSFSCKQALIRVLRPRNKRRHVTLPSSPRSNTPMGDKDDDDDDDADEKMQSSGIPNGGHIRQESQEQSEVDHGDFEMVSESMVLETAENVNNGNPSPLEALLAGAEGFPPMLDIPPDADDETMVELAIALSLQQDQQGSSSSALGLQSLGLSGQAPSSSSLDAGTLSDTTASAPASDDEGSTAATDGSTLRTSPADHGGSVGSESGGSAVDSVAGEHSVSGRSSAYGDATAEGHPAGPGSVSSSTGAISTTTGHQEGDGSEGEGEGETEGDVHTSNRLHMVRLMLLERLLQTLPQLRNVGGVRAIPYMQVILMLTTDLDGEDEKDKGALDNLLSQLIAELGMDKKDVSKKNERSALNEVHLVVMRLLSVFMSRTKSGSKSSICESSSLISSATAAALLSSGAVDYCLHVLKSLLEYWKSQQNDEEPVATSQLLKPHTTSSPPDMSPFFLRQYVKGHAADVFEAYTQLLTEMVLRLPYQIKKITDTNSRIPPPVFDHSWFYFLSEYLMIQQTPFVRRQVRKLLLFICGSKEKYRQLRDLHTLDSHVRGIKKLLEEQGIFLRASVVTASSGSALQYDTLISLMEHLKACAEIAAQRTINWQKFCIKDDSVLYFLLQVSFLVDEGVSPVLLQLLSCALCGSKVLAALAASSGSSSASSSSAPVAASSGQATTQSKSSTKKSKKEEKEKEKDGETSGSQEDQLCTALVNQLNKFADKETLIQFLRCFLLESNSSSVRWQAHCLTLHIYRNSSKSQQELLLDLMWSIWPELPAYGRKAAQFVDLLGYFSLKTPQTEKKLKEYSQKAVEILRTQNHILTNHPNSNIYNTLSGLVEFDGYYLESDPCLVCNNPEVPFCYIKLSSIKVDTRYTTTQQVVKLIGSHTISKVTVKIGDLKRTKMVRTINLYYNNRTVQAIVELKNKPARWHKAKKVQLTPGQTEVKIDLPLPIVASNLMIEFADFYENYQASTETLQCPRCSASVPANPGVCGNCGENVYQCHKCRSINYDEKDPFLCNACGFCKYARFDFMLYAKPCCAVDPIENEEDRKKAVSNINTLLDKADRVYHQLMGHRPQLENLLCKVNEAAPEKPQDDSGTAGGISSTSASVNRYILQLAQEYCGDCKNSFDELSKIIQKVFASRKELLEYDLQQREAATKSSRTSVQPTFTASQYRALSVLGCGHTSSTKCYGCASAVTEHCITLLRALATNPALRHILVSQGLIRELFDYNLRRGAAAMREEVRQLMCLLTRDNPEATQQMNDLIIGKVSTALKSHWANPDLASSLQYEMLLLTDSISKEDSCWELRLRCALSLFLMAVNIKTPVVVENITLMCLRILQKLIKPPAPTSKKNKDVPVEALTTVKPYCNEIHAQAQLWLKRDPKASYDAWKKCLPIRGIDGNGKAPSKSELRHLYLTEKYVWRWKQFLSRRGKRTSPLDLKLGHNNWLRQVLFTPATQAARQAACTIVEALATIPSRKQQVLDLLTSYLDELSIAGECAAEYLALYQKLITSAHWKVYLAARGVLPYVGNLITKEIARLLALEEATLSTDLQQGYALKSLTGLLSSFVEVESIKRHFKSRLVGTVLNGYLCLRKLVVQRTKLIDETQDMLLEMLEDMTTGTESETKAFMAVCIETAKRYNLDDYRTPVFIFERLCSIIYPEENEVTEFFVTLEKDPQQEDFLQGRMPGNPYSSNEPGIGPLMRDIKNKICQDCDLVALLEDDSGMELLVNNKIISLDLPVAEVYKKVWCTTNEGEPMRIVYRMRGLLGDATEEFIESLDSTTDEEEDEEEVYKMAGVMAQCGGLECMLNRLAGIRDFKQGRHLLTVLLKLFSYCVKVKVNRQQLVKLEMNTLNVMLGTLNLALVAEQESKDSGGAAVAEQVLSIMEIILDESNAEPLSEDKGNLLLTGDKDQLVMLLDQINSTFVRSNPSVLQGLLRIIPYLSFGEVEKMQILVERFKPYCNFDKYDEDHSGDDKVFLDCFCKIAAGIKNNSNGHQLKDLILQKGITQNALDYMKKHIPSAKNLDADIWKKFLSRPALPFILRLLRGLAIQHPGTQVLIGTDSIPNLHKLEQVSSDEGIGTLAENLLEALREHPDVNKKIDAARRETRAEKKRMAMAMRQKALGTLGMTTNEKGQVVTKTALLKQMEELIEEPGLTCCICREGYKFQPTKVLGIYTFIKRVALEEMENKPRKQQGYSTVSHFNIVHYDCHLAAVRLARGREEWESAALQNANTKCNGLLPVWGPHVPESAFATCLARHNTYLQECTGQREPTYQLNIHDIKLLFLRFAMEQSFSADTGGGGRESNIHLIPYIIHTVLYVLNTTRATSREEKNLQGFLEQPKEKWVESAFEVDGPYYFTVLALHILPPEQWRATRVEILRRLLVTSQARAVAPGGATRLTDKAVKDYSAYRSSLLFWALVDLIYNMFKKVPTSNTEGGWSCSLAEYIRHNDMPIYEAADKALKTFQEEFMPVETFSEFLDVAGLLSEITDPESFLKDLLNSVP", "assay": "immunoprecipitation with RB antibody from HeLa extract, anti-MTAF600 immunoblot"}, "[2]": {"biological_target": "T1, MTAF600 (microtubule associated factor …)", "assay": "immunoprecipitation with p107 antibody from HeLa extract, anti-MTAF600 immunoblot"}, "[3]": {"biological_target": "T1, MTAF600 (microtubule associated factor …)", "assay": "immunoprecipitation with p130 antibody from HeLa extract, anti-MTAF600 immunoblot"}, "[4]": {"biological_target": "T1, MTAF600 (microtubule associated factor …)", "assay": "anti-FLAG immunoprecipitation of C-terminally tagged RB from HeLa cells"}, "[5]": {"biological_target": "T2, GST-RB (379-928) (UniProt P06400 379-928)", "T2 construct": "Expressed in E. coli; also called large pocket domain of RB as GST fusion; not shown: glutathione S-transferase (GST) fusion partner of vector pGEX6P-1", "T2 sequence (looked up)": "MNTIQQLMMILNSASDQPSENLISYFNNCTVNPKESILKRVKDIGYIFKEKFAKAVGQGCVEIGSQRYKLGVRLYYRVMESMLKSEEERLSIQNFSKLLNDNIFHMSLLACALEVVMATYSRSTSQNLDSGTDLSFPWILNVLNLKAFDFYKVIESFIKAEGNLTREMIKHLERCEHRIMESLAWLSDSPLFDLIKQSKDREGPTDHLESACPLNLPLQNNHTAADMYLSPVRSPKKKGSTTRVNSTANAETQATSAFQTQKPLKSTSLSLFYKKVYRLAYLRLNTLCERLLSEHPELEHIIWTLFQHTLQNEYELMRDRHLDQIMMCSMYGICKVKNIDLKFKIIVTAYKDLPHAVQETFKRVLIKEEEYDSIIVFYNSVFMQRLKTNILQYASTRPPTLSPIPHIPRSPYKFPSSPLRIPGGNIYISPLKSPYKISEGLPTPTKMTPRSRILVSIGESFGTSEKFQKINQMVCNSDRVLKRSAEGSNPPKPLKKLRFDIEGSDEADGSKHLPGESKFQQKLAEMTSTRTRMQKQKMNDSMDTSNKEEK", "assay": "GST-RB (379-928) pull-down of His-tagged fragment from E. coli, Coomassie stain and anti-His immunoblot"}}}
{"binder": "B1", "values": [{"measurement": "binding result", "setting": "[1]", "value": "binds"}]}
{"binder": "B2", "values": [{"measurement": "binding result", "setting": "[2]", "value": "binds"}]}
{"binder": "B3", "values": [{"measurement": "binding result", "setting": "[3]", "value": "binds"}]}
{"binder": "B4", "values": [{"measurement": "binding result", "setting": "[4]", "value": "binds"}]}
{"binder": "B5", "values": [{"measurement": "binding result", "setting": "[5]", "value": "no binding"}]}
